Reference: article PMC10996581 (The Journal of Cell Biology, 2024)
Where two headings read alike, the source gives them in different places. Where no end group is shown, it is not given here. The star is where a group is joined. 5FAM = O=C1OC2(c3ccc(O)cc3Oc3cc(O)ccc32)c2ccc(C(=O)*)cc21

T1: His6-IRE1αLD (human, UniProt O75460 24-443)
T1 sequence: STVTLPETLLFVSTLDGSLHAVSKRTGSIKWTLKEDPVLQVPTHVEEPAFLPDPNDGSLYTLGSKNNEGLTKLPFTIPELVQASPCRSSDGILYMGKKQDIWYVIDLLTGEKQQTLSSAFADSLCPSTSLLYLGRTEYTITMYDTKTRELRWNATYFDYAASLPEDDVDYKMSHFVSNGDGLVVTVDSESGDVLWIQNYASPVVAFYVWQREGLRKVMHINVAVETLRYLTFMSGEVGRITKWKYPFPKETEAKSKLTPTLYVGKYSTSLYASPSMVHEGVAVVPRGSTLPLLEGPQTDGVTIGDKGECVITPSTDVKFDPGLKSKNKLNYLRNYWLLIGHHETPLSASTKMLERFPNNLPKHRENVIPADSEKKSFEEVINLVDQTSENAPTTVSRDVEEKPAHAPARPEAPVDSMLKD

B1: IRE1α_(Y358-L369) peptide, 5-FAM labelled, wild-type sequence (peptide)
peptide: 5FAM-YWLLIGHHETPL
B2: CTxA_(I124-F132) peptide, 5-FAM labelled, wild-type sequence (peptide)
peptide: IYGWYRVHF
modifications: also: 5-FAM labelled, position not given here
B3: unlabeled IRE1α_(Y358-L369) peptide, wild-type sequence (peptide)
peptide: YWLLIGHHETPL
B4: human IgG light chain variable domain (VL) peptide, 5-FAM labelled (peptide)
peptide: 5FAM-YLAWYQQKP

Tests used:
Assay in all cases: […]
His6-IRE1αLD [1] = target: T1, His6-IRE1αLD
His6-IRE1αLD [2] = target: T1, His6-IRE1αLD; remark: listed apart in the source
[3] = target: B2

For B1, which Kd (His6-IRE1αLD [1]) is on record?
Its Kd is 0.24 mM.

Does B2 bind (His6-IRE1αLD [1])?
Result: binds

Which results are given for B3?
binding result (His6-IRE1αLD [2]): binds; fold weaker affinity than either peptide alone binding to IRE1αLD [3]: ≥ 10 fold

How did the Kd (His6-IRE1αLD [1]) turn out when B4 was run?
The Kd was 219 mM.
